Results from publication PMC6701106.
Positions of bridges follow the written chain, without caps; N, C: chain ends. No end group written: not given here.

Target: mAb3F3 (mouse)
Test: SPR; Biacore T200; antibodies injected for 60 s at 10 μl/min in the active flow cell; BSA conjugated peptide antigens flowed at 1.25 to 20 nM

| Binder | Kd [nM] | koff [s⁻¹] | kon [M⁻¹ s⁻¹] |
| --- | --- | --- | --- |
| CGLRSFTRQARVVGGTDADEGEWP [Mat-Linear (human Prss14/ST14 aa604-627, linear 24mer)] | 406 | 0.0105 | 25900 |
| CGLRSFTRQARVVGGTDADEGEWPC (disulfide 1-25; also: conjugated to BSA) [BSA conjugated Mat-Loop (human Prss14/ST14 aa604-627 plus C-terminal cysteine, circular 25mer)] | 5.33 | 0.00342 | 641000 |
